Consider 16 molecules from patent publication US20240116985A1, “STAPLED PEPTIDES AND METHODS THEREOF” (priority 2020, published 2024).

Starred links: 1 amine or outer side, 2 acyl side, 3 side chain; linkers in the order of their positions; H or OH if unused. Positions of bridges follow the written chain, without caps; N, C: chain ends. Non-standard residues stand in square brackets, D forms with d. Primed or numbered codes have the meaning given here. PyrS2″ = (S)-3-amino-1-((pent-4-en-1-yloxy)carbonyl)pyrrolidine-3-carboxylic acid (stapling residue), C=CCCCOC(=O)N1CC[C@@](N[*:1])(C(=O)[*:2])C1; B5(4) = 2,2-bis(4-pentenyl)glycine = 2-amino-2-(pent-4-en-1-yl)hept-6-enoic acid (stitching residue), C=CCCCC(CCCC=C)(N[*:1])C(=O)[*:2]; B5(5) = 2,2-bis(4-pentenyl)glycine, 2-amino-2-(pent-4-en-1-yl)hept-6-enoic acid (stitching residue), C=CCCCC(CCCC=C)(N[*:1])C(=O)[*:2]; B5(19) = 2-amino-2-(pent-4-en-1-yl)hept-6-enoic acid (bis(4-pentenyl)glycine), C=CCCCC(CCCC=C)(N[*:1])C(=O)[*:2]; B5(25) = 2-amino-2-(pent-4-en-1-yl)hept-6-enoic acid (stitching residue), C=CCCCC(CCCC=C)(N[*:1])C(=O)[*:2]; (CyPr)‑3SF = (S)-2-amino-3-(3-cyclopropylphenyl)propanoic acid, O=C([C@H](Cc1cccc(C2CC2)c1)N[*:1])[*:2]; B5(3) = 2,2-bis(4-pentenyl)glycine (stitching residue), C=CCCCC(CCCC=C)(N[*:1])C(=O)[*:2]; SbGlu = 3-aminopentanedioic acid, R/S prefix not explained; Phe(3-Ph) = N[C@@H](Cc1cccc(-c2ccccc2)c1)C(=O)O; Phe(3-COOH) = N[C@@H](Cc1cccc(C(=O)O)c1)C(=O)O; 2F3MeF = Cc1cccc(C[C@H](N[*:1])C(=O)[*:2])c1F; Phe(2-CF3) = N[C@@H](Cc1ccccc1C(F)(F)F)C(=O)O; Ala(4-thiazolyl) = N[C@@H](Cc1cscn1)C(=O)O; Bta = N[C@@H](Cc1csc2ccccc12)C(=O)O; Lys(iPr) = CC(C)NCCCC[C@H](N)C(=O)O; αAllylPro = C=CC[C@@]1(C(=O)O)CCCN1; tBuAla = CC(C)(C)C[C@H](N)C(=O)O; 2Thi = N[C@@H](Cc1cccs1)C(=O)O; 3Thi = N[C@@H](Cc1ccsc1)C(=O)O; Cha = N[C@@H](CC1CCCCC1)C(=O)O; S8 = C=CCCCCCC[C@](C)(N)C(=O)O; R5 = C=CCCC[C@@](C)(N)C(=O)O; hSer = N[C@@H](CCO)C(=O)O; Nle = CCCC[C@H](N)C(=O)O

For the first assay, the target named is full-length beta-Catenin (Uniprot ID P35222) (Homo sapiens (Human)) (UniProt P35222). Put plainly: fluorescence polarization competition; competitor 5FAM-TCF4(10-53) on full-length beta-catenin. A general note: Fluorescence polarisation rises when a labelled molecule tumbles more slowly, as on binding a larger partner.
Target sequence in this assay (P35222 whole entry): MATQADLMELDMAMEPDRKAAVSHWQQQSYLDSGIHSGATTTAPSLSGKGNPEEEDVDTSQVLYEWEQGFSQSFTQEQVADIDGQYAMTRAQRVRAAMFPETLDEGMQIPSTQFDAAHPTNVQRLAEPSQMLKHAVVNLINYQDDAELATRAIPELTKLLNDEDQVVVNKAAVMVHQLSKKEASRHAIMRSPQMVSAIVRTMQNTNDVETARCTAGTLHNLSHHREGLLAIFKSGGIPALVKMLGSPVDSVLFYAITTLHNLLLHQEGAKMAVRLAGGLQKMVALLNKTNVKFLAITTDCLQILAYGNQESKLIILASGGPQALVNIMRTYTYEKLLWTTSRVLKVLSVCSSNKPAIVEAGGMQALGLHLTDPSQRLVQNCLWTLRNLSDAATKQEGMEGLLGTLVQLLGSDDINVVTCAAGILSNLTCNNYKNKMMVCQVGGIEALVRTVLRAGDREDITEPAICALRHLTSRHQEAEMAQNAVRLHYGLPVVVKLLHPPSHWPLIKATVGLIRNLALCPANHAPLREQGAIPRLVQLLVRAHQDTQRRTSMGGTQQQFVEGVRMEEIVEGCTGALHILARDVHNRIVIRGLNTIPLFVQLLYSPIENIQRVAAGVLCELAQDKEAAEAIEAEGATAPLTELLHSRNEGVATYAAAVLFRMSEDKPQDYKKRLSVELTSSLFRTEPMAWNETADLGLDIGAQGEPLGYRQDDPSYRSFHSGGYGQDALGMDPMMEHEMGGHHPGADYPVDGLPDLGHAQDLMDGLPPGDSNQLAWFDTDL
For orientation: IC50 means the concentration that inhibits the measured activity by half. As for Ac-P[R5]D[tBuAla][B5(25)]D[Phe(3-COOH)]AAFL[PyrS2″][Phe(2-CF3)][Bta]Q-NH2 (staple 5-12, 2-5; also: staple -CH=CH- reduced to -CH2-CH2-) [I-2573], the IC50 was found to be 234 nM.

The target is the same in the next assay. Put plainly: fluorescence polarization competition; 10 nM full-length beta-catenin + 10 nM 5FAM-TCF4(10-53), peptide titrated.
Target sequence in this assay (P35222 whole entry): as above
With Ac-[αAllylPro]D[tBuAla][B5(4)]D[Phe(3-COOH)]AAFL[PyrS2″][Phe(2-CF3)][Bta][dA]-NH2 (staple 1-4, 4-11) [I-2091], the half-inhibitory concentration (IC50) is 49 nM. Same read-out and setting: to Ac-[αAllylPro]D[tBuAla][B5(4)]D[Phe(3-COOH)]AAFF[PyrS2″][2F3MeF][Bta][dA]-NH2 (staple 1-4, 4-11) [I-2095] belongs 78 nM; to Ac-[αAllylPro]N[Cha][B5(5)]DQ[Lys(iPr)]A[Ala(4-thiazolyl)]N[PyrS2″]F[Bta][hSer]-NH2 (staple 1-4, 4-11) [I-2072], 8260 nM; to Ac-[αAllylPro]N[Cha][B5(5)]DQ[Lys(iPr)]AFN[PyrS2″]F[Bta]-NH2 (staple 1-4, 4-11) [I-2073], 398 nM. Still for that read-out and setting: to Ac-[αAllylPro]N[Cha][B5(5)]DQ[Lys(iPr)]AFN[PyrS2″][2Thi][Bta][hSer]-NH2 (staple 1-4, 4-11) [I-2075] belongs 2330 nM.

Consider Ac-[αAllylPro]D[tBuAla][B5(4)]D[Phe(3-COOH)]AAFF[PyrS2″][Phe(2-CF3)][Bta][dQ]-NH2 (staple 1-4, 4-11) [I-2093], for which the 50% inhibitory concentration (IC50) was found to be 43 nM. The same measure, in the same setting: to Ac-[αAllylPro]N[Cha][B5(5)]DQ[Lys(iPr)]AFN[PyrS2″][3Thi][Bta][hSer]-NH2 (staple 1-4, 4-11) [I-2074] belongs 789 nM. Turning to Ac-[αAllylPro]N[Cha][B5(5)]DQ[Lys(iPr)]AFN[PyrS2″][Ala(4-thiazolyl)][Bta][hSer]-NH2 (staple 1-4, 4-11) [I-2071], the IC50 came out at 592 nM.

A further assay has the same target. Put plainly: fluorescence polarization competition against 5FAM-TCF4 10-53.
Target sequence in this assay (P35222 whole entry): as above
As to Ac-[αAllylPro]D[tBuAla][B5(3)]D[Phe(3-COOH)]AAFL[PyrS2″][(CyPr)‑3SF]FQ-NH2 (staple 1-4, 4-11) [I-2215], the IC50 amounted to 1540 nM. The same measure, in the same setting: under Ac-[αAllylPro]D[tBuAla][B5(3)]D[Phe(3-COOH)]AAFL[PyrS2″][Phe(3-Ph)]FQ-NH2 (staple 1-4, 4-11) [I-2214] stands 1860 nM.

A further assay shares this target. Put plainly: fluorescence polarization competition; full-length beta-catenin, competitor 5FAM-TCF4(10-53) probe.
Target sequence in this assay (P35222 whole entry): as above
In turn, Ac-[αAllylPro]DI[B5(4)]DE[Nle]AFQ[S8]F[Bta]Q-NH2 (staple 1-4, 4-11) [I-657] registered an IC50 of 46 nM. Same read-out and setting: to Ac-[αAllylPro]DI[B5(4)]DE[Nle]AFQ[S8]F[Bta]Q-NH2 (staple 1-4, 4-11) [I-656] belongs 73 nM. Same read-out and setting: to Ac-[αAllylPro][SbGlu]I[B5(4)]DEAAFQ[S8]F[Bta]Q-NH2 (staple 1-4, 4-11) [I-672] belongs 5000 nM; to Ac-[αAllylPro]DI[B5(19)]DEA[Nle]FQ[S8]F[Bta]Q-NH2 (staple 1-4, 4-11) [I-666], 626 nM. Turning to Ac-[αAllylPro]DI[B5(4)]DEA[Nle]FQ[S8]F[Bta]Q-NH2 (staple 1-4, 4-11) [I-667], the IC50 stood at 585 nM.

The next assay has the same target. The assay can be described thus: fluorescence polarization competition, full-length beta-catenin with 5FAM-TCF4(10-53) probe as competitor.
Target sequence in this assay (P35222 2-781 limits assumed): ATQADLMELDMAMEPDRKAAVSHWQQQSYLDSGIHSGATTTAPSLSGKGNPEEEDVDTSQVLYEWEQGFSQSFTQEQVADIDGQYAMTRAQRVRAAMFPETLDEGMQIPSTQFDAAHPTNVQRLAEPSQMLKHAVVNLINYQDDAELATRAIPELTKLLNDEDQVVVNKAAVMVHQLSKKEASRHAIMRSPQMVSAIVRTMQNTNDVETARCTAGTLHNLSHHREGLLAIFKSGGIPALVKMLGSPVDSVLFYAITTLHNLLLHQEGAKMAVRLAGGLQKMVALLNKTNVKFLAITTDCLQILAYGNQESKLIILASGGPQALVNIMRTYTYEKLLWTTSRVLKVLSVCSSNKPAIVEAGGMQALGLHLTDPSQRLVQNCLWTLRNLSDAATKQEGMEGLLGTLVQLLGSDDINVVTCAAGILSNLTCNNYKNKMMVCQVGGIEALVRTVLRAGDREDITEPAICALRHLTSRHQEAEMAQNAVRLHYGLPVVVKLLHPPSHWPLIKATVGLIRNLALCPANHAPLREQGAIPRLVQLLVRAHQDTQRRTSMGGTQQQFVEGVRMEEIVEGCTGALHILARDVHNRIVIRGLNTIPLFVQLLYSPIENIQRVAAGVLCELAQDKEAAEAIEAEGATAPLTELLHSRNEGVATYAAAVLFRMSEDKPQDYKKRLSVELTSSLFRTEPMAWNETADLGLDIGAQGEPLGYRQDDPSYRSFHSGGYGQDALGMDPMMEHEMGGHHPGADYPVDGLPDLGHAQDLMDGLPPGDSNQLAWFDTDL
Usually EC50 stands for the concentration giving half of the maximal effect. A high value points to weaker potency. As to Ac-[αAllylPro]DI[B5(4)]DE[Nle]AFQ[S8]F[Bta]Q-NH2 (staple 1-4, 4-11) [I-657], the EC50 was 46 nM.

Ac-[αAllylPro]DI[B5(4)]DE[Nle]AFQ[S8]F[Bta]Q-NH2 (staple 1-4, 4-11) [I-656] showed an EC50 of 73 nM. On the same count and under the same terms, under Ac-[αAllylPro][SbGlu]I[B5(4)]DEAAFQ[S8]F[Bta]Q-NH2 (staple 1-4, 4-11) [I-672] stands 5000 nM; under Ac-[αAllylPro]DI[B5(19)]DEA[Nle]FQ[S8]F[Bta]Q-NH2 (staple 1-4, 4-11) [I-666], 626 nM; under Ac-[αAllylPro]DI[B5(4)]DEA[Nle]FQ[S8]F[Bta]Q-NH2 (staple 1-4, 4-11) [I-667], 585 nM.
